Measured values reported in publication PMC8267615.

Tests used:
[1] = biological target: TREM-1 expressed on the monocyte cell membrane (human (endogenous in monocytes)) (UniProt Q9NP99)
[2] = biological target: TREM-1 expressed on the monocyte cell membrane (human (endogenous in monocytes)) (UniProt Q9NP99); remark: listed apart in the source

Chain of TREM-1 expressed on the monocyte cell membrane (human (endogenous in monocytes)) (Q9NP99 21-234): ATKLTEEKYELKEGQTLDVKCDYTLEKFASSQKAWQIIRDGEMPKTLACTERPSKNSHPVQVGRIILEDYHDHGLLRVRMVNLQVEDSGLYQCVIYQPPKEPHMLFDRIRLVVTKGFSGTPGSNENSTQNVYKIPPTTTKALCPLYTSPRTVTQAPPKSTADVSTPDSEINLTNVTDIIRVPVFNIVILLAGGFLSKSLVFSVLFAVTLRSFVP

recombinant human Hsp70 (major heat shock protein 70) (from UniProt P0DMV8 1-641) (natural protein)
cytotoxicity against target cells of lymphocytes activated in PBMCs by six-day treatment with rising Hsp70 concentration (half maximal effective concentration) [1]: 0.5 nM | inhibition of the cytotoxicity of Hsp70-activated lymphocytes by the TREM-1 inhibitor peptide LP17 (…), against LP17 concentration; not completely suppressed at higher concentration [1]: 0.01 nM | cytotoxic activity of NK cells isolated on days four and six from PBMCs incubated with Hsp70 with or without the TREM-1 inhibitor LP17 (no difference on day six) [2]: 40%
